Measurements taken from patent US9067981 (Janssen / Centocor, dated 2015).
Residue numbers refer to the chain shown, from its start.

T1: Aβ1-10 peptide (immobilized)
T1 construct: also called Ab1-10
T1 peptide: DAEFRHDSGY

T2: Aβ1-7 peptide (amino acids 1-7 of SEQ ID NO:1)
T2 construct: also called Aβ 2-7 (the part visible in the superimposed models)
T2 peptide: DAEFRHD

B1: 12A11 murine IgG1 kappa monoclonal antibody (antibody, V domains shown)
VH: QVTLKESGPGILKPSQTLSLTCSFSGFSLSTSGMSVGWIRQPSGKGLEWLAHIWWDDDKYYNPSLKSRLTISKDTSRNQVFLKITSVDTADTATYYCARRTTTADYFAYWGQGTTLTVSS
VL: DVLMTQTPLSLPVSLGDQASISCRSSQSIVHSNGNTYLEWYLQKPGQSPKLLIYKVSNRFSGVPDRFSGSGSGTDFTLKISRVEAEDLGIYYCFQSSHVPLTFGAGTKLELK
B2: Fab fragment of 12B4 (Fab, V domains shown)
VH: QVTLKESGPGILQPSQTLSLTCSFSGFSLSTNGMGVSWIRQPSGKGLEWLAHIYWDEDKRYNPSLKSRLTISKDTSNNQVFLKITNVDTADTATYYCARRRIIYDVEDYFDYWGQGTTLTVSS
VL: B1 VL with S28N, I90V, S96G
notes: Fab of the murine IgG2a kappa antibody as crystallized; also called 12B4 Fab
B3: Fab fragment of 12A11 (Fab, V domains shown)
VH: B1 VH
VL: B1 VL
notes: also called 12A11 Fab
B4: Fab fragment of 3D6 (Fab, V domains shown)
VL: not shown
V domain: EVKLVESGGGLVKPGASLKLSCAASGFTFSNYGMSWVRQNSDKRLEWVASIRSGGGRTYYSDNVKGRFTISRENAKNTLYLQMSSLKSEDTALYYCVRYDHYSGSSDYWGQGTTITVSS
notes: also called 3D6 Fab
B5: 12B4 murine IgG2a kappa monoclonal antibody (antibody, V domains shown)
VH: B2 VH
VL: B1 VL with S28N, I90V, S96G

Legend:
[1] = biological target: T1, Aβ1-10 peptide (immobilized); assay: BIACORE (SPR), immobilized Aβ1-10, bivalent interaction assumed
[2] = biological target: T2, Aβ1-7 peptide (amino acids 1-7 of SEQ …); assay: X-ray crystal structure of the Fab:peptide complex
[3] = biological target: T3, Aβ1-40 peptide (amino acids 1-40 of SEQ ID NO:1); assay: comparison of unit cell parameters of the Aβ1-7 and Aβ1-40 crystals
T3 construct: also called Aβ40

Binder	Kd [1]	binding result [2]	binding result [3]
B1	8.4 nM		
B2		binds	
B3		binds	binds
B4		binds	
B5	24.5 nM		
